Literature values, collected in paper PMC3362950.

Target: Kv1.3 (UniProt P22001)
Sequence of UniProt P22001 (P22001 whole entry): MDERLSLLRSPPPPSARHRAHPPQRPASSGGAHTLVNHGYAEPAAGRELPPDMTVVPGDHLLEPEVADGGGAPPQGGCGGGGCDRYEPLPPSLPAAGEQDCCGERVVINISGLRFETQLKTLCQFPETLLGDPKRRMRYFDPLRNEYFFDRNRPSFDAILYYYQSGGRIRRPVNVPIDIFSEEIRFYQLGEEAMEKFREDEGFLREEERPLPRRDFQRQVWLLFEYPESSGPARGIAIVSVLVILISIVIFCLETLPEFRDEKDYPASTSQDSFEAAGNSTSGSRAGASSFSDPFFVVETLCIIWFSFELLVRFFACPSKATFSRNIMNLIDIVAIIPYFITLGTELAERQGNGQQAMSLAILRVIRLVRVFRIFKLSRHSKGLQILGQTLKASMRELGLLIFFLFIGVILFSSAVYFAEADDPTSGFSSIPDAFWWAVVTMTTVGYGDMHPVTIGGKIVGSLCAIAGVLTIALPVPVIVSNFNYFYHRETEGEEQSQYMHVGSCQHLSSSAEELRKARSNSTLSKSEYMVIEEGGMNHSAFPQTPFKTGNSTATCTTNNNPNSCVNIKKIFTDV

For KTX (from UniProt P24662), the Kd is given as 0.01 nM.
